Data published in patent publication US20080227698A1, “OLIGOPEPTIDES FOR TREATMENT OF OSTEOPOROSIS AND OTHER BONE DISEASES AND METHODS THEREOF” (Washington University, priority 2005, published 2008).
Blank lines part the entries; values can stand above or below the molecule they belong to.

Experiments:
LRP6 [1] = molecular target: T1, LRP6 (Homo sapiens, UniProt O75581); experiment: ^125I-DKK1 binding to LRP6-transduced HT1080 cells; parameters: plasmid pCS-Myc-hLRP6 containing the full-length human LRP6 cDNA; HA; expressed in transfected cells; host or cells: human HT1080 cells, stably transduced (pLNCX2 retroviral vector); settings: ^125I-DKK1 5 nM, 3 hours at 4° C.
Protocol: (§1) Cells (2×10^5) were seeded into 12-well dishes 1 day prior to assay. Ligand-binding buffer (minimal Eagle's medium containing 0.6% BSA with a different concentration of radioligand, 0.6 ml/well) was added to cell monolayers, in the absence or the presence of 500 nM unlabeled RAP or 500 nM unlabeled Mesd, followed with incubation for 0-4 hours at 4° C. Thereafter, overlying buffer containing unbound ligand was removed, and cell monolayers were washed and lysed in low-SDS lysis buffer (62.5 mM Tris-HCl pH 6.8, 0.2% SDS, 10% v/glycerol) and counted.
RAP is a receptor antagonist for members of the LDLR family, and is able to inhibit the binding of most known ligands of the LDLR family members. […] In these experiments, Serum-free conditioned medium was harvested from HEK293 cells transiently transfected with cDNA for human Myc-DKK1 and allowed to bind to LRP6-transduced HT1080 cells (B,C) and control cells (A) in the absence (A,B) or presence (C) of 1 μM Mesd. Cell-surface-bound Myc-tagged DKK proteins were fixed and detected by immunofluorescence staining with anti-Myc antibody. […] Binding of 125I-DKK1 (5 nM) to LRP6-transduced HT1080 cells or the control cells was carried out for 3 hours at 4° C. in the absence (total) or presence of 500 nM RAP or 500 nM Mesd. […] LRP6-mediated 125I-Mesd (5 nM) degradation was carried out for 4 hours at 37° C. in the absence or presence of 500 nM RAP or 500 nM Mesd. Values are the means of triple determinations with the s.d. indicated by error bars. Bar, 10 μm.

LRP6 [2] = molecular target: T1, LRP6; experiment: ^125I-Mesd cell surface ligand binding to LRP6-transduced HT1080 cells; parameters: plasmid pCS-Myc-hLRP6 containing the full-length human LRP6 cDNA; HA; expressed in transfected cells; host or cells: human HT1080 cells, stably transduced (pLNCX2 retroviral vector); settings: 500 nM unlabeled competitor, ^125I-Mesd 5 nM, 2 hours at 4° C.
Protocol: To examine whether Mesd binds with high affinity to […] at the cell surface, cell surface ligand binding experiments were performed with cells stably transduced with LRP6 cDNA. Human HT1080 cells, which express undetectable levels of LRP6, were transduced with a viral vector alone (pLNCX2) or with vector containing LRP6 cDNA (Li, Y., Oncogene 23: 9129-9135, 2004) and used for ^125I-Mesd binding (FIG. 1A). ^125I-Mesd (5 nM) reached maximal binding after 2 hours incubation at 4° C. with LRP6-expressing HT1080 cells (FIG. 1A).
(A) Time course of ^125I-Mesd (5 nM) binding to LRP6-transduced HT1080 cells and the control cells. Assay was carried out for the indicated periods at 4° C. in the absence (total) or presence of 500 nM Mesd (non-specific). (B) Saturation binding of ^125I-Mesd to LRP6-transduced HT1080 cells and the control cells. Assay was carried out at indicated concentrations for 3 hours at 4° C. in the absence (total) or presence (non-specific) of 500 nM Mesd. (C) Scatchard plots of data in B. All values are the average of triple determinations with the s.d. indicated by error bars.
as §1

LRP6 [3] = molecular target: T1, LRP6; experiment: LRP6-mediated ^125I-Mesd degradation in LRP6-transduced HT1080 cells; type: cell-based; parameters: plasmid pCS-Myc-hLRP6 containing the full-length human LRP6 cDNA; HA; expressed in transfected cells; host or cells: human HT1080 cells, stably transduced (pLNCX2 retroviral vector); settings: 500 nM unlabeled competitor, ^125I-Mesd 5 nM, 4 hours at 37° C.
Protocol: Ligand degradation was performed using the methods as described (Li, Y., J. Biol. Chem. 275: 17187-17194, 2000). Briefly, 2×10^5 cells were seeded into 12-well dishes 1 day prior to assay. Pre-warmed assay buffer (minimal Eagle's medium containing 0.6% BSA with radioligand, 0.6 ml/well) was added to cell monolayers in the absence or the presence of unlabeled 500 nM RAP or 500 nM Mesd, followed by incubation for 4 hours at 37° C. Thereafter, the medium overlying the cell monolayers was removed and proteins were precipitated by addition of BSA to 10 mg/ml and trichloroacetic acid to 20%. Degradation of radioligand was defined as the appearance of radioactive fragments in the overlying medium that were soluble in 20% trichloroacetic acid. Kinetic analysis of endocytosis LRP6-transduced HT1080 cells were plated in 12-well plates at a density of 2×10^5 cells/well and used after overnight culture. Cells were rinsed twice in ice-cold assay buffer (minimal Eagle's medium containing 0.6% BSA), and ^125I-anti-HA IgG was added at 1 nM final concentration in cold assay buffer (0.5 ml/well). The binding of ^125Ianti- HA IgG was carried out at 4° C. for 90 minutes with gentle rocking. Unbound ^125I-anti-HA IgG was removed by washing cell monolayers three times with cold assay buffer. Ice-cold stop/strip solution (0.2 M acetic acid, pH 2.6, 0.1 M NaCl) was added to one set of plates without warming up and kept on ice. The remaining plates were then placed in a 37° C. water bath and 0.5 ml assay buffer prewarmed to 37° C. was quickly added to cell monolayers to initiate internalization. After each time point, the plates were quickly placed on ice and the assay buffer was replaced with cold stop/strip solution. ^125I-anti-HA IgG that remained on the cell surface was stripped by incubation of cell monolayers with cold stop/strip solution for a total of 20 minutes (0.75 ml for 10 minutes, twice) and counted. Cell monolayers were then solubilized with low-SDS lysis buffer and counted. […] The fraction of internalized ^125I-anti-HA IgG after each time point was calculated and plotted. […]

LRP6 [4] = molecular target: T1, LRP6; experiment: ^125I-RAP binding to LRP6-transduced HT1080 cells and control cells; parameters: plasmid pCS-Myc-hLRP6 containing the full-length human LRP6 cDNA; HA; expressed in transfected cells; host or cells: human HT1080 cells, stably transduced (pLNCX2 retroviral vector)
Protocol: as §1
Receptor-associated protein (RAP) binds with high affinity to LRP, megalin, VLDLR and apoER2, and with a lower affinity to the LDLR (Bu, G., Int. Rev. Cytol. 209, 79-116. 2001). To determine whether RAP and Mesd bind to identical, overlapping, or different sites on the receptors, binding and competition analysis of these two chaperones with HT1080 cells stably expressing LRP6 was performed.
In FIG. 8A, binding of ^125I-RAP (5 nM) to LRP6-transduced HT1080 cells and the control cells was carried out for 4 hours at 4° C. in the absence (total) or presence of 500 nM RAP, or 500 nM Mesd. In FIG. 8B, binding of ^125I-Mesd (5 nM) to LRP6-transduced HT1080 cells was carried out for 2 hours at 4° C. in the absence (total) or presence of various concentrations of RAP or 500 nM Mesd. (C) LRP6-mediated ^125I-Mesd (5 nM) degradation was carried out for 4 hours at 37° C. in the absence or presence of 500 nM Mesd or 500 nM RAP. Values are the means of triple determinations with the s.d. indicated by error bars.

LRP6 [5] = molecular target: T1, LRP6; experiment: LRP6-mediated ^125I-DKK1 degradation in LRP6-transduced HT1080 cells; type: cell-based; parameters: plasmid pCS-Myc-hLRP6 containing the full-length human LRP6 cDNA; HA; expressed in transfected cells; host or cells: human HT1080 cells, stably transduced (pLNCX2 retroviral vector); settings: 5 nM, 4 hours at 37° C.
Protocol: Ligand degradation was performed using the methods as described (Li, Y., J. Biol. Chem. 275: 17187-17194, 2000). Briefly, 2×10^5 cells were seeded into 12-well dishes 1 day prior to assay. Pre-warmed assay buffer (minimal Eagle's medium containing 0.6% BSA with radioligand, 0.6 ml/well) was added to cell monolayers in the absence or the presence of unlabeled 500 nM RAP or 500 nM Mesd, followed by incubation for 4 hours at 37° C. Thereafter, the medium overlying the cell monolayers was removed and proteins were precipitated by addition of BSA to 10 mg/ml and trichloroacetic acid to 20%. […] After each time point, the plates were quickly placed on ice and the assay buffer was replaced with cold stop/strip solution. ^125I-anti-HA IgG that remained on the cell surface was stripped by incubation of cell monolayers with cold stop/strip solution for a total of 20 minutes (0.75 ml for 10 minutes, twice) and counted. Cell monolayers were then solubilized with low-SDS lysis buffer and counted. […] The fraction of internalized ^125I-anti-HA IgG after each time point was calculated and plotted.
RAP is a receptor antagonist for members of the LDLR family, and is able to inhibit the binding of most known ligands of the LDLR family members. […] Cell-surface-bound Myc-tagged DKK proteins were fixed and detected by immunofluorescence staining with anti-Myc antibody. […]

Wnt signaling = experiment: Wnt signalling TCF/LEF-Luc assay in HEK293 cells (Wnt3A conditioned medium plus Dkk1); type: cell-based; settings: Wnt3A conditioned medium plus Dkk1 protein at 10 nM
Protocol: HEK293 cells were plated into six-well plates. For each well, […] of the TOP-[…] luciferase construct (Upstate Biotechnology) was cotransfected with 0.8 μg Mesd-expressing vector, 0.8 μg Mesd mutant-expressing vector, or empty vector. A β-galactosidase-expressing vector (Promega, Madison, Wis.) was included as an internal control for transfection efficiency. After 48 hours, cells were lysed and both luciferase and β-galactosidase activities were determined with enzyme assay kits (Promega). The luciferase activity was determined with a luminometer using the Dual Luciferase Assay system (Promega). Luciferase activity was normalized to the activity of the P-galactosidase.

[6] = molecular target: T2, LRP6 on LRP6-transduced HT1080 cells (HA-tagged) (UniProt O75581 20-1613, limits assumed); experiment: competition against 125I-DKK1 for LRP6 (FIG. 10D)
T2 construct: whole, on cells; also called mature LRP6; cell surface LRP6

[7] = molecular target: T3, human Myc-tagged LRP5 on transiently transfected HEK293 cells (human, UniProt O75197 32-1615); experiment: competition against 125I-Mesd for LRP5 (FIG. 10A)
T3 construct: whole, on cells; also called mature LRP5; pcDNA3.1C-Myc-hLRP5
T3 sequence (O75197 32-1615): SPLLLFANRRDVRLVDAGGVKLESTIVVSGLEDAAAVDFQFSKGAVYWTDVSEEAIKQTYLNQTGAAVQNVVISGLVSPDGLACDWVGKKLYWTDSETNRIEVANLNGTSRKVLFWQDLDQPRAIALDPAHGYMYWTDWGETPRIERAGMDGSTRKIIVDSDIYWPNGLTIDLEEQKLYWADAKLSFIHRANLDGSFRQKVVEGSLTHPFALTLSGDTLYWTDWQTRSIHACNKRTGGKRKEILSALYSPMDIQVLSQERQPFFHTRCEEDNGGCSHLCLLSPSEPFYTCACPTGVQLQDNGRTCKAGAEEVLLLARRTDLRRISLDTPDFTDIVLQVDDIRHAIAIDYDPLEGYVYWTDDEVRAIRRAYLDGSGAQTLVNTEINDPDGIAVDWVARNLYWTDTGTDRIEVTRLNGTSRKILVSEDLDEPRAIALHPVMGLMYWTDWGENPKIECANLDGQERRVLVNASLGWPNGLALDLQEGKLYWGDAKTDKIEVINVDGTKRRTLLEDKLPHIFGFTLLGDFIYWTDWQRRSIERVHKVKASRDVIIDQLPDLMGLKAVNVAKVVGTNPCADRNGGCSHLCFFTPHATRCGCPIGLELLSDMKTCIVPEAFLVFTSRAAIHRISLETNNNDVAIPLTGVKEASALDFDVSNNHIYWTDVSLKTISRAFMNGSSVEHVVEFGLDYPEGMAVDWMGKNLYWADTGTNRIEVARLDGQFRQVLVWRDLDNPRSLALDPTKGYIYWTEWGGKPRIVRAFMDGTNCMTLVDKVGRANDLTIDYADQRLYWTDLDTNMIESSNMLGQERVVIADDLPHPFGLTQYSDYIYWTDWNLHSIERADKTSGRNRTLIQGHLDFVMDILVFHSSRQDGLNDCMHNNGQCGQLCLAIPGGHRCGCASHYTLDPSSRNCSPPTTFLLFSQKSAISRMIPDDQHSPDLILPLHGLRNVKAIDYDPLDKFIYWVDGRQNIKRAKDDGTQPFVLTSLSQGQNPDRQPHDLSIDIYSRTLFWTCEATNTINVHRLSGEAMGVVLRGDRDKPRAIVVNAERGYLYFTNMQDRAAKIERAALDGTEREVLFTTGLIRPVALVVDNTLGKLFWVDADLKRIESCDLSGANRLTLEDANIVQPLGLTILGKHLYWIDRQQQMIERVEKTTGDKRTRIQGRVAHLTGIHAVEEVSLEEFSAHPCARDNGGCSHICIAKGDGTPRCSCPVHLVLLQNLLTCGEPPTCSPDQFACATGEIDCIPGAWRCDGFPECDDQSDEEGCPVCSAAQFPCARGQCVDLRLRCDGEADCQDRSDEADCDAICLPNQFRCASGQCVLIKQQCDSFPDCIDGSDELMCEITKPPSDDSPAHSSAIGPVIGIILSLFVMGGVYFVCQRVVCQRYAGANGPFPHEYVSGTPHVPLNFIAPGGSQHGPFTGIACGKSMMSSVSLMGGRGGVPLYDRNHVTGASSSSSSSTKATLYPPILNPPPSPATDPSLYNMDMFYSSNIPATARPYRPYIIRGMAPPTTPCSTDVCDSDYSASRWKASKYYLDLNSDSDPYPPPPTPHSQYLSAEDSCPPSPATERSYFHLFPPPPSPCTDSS

T1 sequence (O75581 20-1613): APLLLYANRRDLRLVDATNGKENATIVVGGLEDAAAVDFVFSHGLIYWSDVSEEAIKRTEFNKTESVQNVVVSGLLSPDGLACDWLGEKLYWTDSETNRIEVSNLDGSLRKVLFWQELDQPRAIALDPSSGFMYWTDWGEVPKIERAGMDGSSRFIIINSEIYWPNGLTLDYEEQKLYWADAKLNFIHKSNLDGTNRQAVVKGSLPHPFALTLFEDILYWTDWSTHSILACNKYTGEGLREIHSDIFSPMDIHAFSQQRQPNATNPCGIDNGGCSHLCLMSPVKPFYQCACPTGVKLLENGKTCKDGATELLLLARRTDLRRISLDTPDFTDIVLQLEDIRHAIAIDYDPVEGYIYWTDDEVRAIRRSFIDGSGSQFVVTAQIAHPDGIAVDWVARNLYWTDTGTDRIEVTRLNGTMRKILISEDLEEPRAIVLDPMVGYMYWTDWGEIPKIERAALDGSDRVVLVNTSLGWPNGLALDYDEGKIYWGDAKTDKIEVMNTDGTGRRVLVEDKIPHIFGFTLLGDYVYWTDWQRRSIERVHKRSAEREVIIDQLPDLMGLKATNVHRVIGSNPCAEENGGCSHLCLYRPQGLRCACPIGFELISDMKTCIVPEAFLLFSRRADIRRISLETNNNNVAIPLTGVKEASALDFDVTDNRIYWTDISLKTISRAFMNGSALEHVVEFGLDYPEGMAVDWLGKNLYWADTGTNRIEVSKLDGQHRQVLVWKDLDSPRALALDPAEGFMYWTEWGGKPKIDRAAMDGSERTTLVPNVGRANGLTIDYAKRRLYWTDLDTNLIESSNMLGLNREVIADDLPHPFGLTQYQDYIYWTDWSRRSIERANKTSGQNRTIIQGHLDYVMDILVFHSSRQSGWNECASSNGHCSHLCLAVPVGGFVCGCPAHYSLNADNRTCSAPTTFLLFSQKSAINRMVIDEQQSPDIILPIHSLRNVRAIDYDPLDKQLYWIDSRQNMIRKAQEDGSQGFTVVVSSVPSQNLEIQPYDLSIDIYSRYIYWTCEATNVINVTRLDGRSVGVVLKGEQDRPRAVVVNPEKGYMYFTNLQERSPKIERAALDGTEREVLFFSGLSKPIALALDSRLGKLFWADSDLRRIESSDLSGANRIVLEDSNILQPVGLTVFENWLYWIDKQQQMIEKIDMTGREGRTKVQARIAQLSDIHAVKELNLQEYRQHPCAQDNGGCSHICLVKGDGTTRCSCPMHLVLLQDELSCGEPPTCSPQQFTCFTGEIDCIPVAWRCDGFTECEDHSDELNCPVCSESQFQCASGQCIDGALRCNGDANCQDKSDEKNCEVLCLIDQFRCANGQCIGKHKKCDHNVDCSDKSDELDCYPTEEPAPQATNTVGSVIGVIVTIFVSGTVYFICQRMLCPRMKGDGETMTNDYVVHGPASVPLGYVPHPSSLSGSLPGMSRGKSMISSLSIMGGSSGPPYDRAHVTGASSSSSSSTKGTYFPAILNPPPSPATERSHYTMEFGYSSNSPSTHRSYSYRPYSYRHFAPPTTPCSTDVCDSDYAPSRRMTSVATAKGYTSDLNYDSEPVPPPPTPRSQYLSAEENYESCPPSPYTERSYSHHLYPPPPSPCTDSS
T2 sequence (O75581 20-1613 limits assumed): as the sequence (O75581 20-1613) above

Effect of excess unlabeled competitor on increased DKK1 binding (LRP6 [1]; 500 nM competitor): not | Inhibition of ^125I-Mesd binding to cell surface LRP6 (LRP6 [2]): ~60% | Inhibition of ^125I-Mesd degradation (LRP6 [3]): only partially | Effect of excess unlabeled competitor on ^125I-RAP binding to control cells (LRP6 [4]; 500 nM competitor, control cells expressing vector alone, 4° C.): completely eliminated this binding | Increase of RAP binding in LRP6 expressing HT1080 cells compared to control cells (LRP6 [4]; ^125I-RAP 5 nM, 4 hours at 4° C.): ~20%
Molecule: RAP: human recombinant 39 kDa receptor-associated protein, expressed in a GST expression vector [reference compound]

^125I-DKK1 degradation in LRP6-expressing HT1080 cells versus control cells (LRP6 [5]): significantly higher levels | ^125I-DKK1 binding in LRP6-expressing HT1080 cells versus control cells (LRP6 [1]): significantly higher levels
Molecule: DKK1: human DKK1 protein, LRP6-specific ligand and antagonist; recombinant (R&D Systems) or Myc-tagged in conditioned medium
Effect of Dkk1 on Wnt signaling (luciferase activity) (Wnt signaling): inhibits Wnt signaling

fold reduction of ^125I-DKK1 binding [6]: > 2 fold | fold reduction of ^125I-Mesd binding [7]: ~10 fold
Molecule: KGGGSKEKNKTKPEKAKKKEGDPKPRASKEDNRAGSR (also called the oligopeptide) [Mesd oligopeptide KGGGSKEKNKTKPEKAKKKEGDPKPRASKEDNRAGSR (SEQ ID NO: 20)]
